The chains are these.
B1: CPEB3 Ribozyme (parent)
chain: GGGGGCCACAGCAGAAGCGUUCACGUCGCGGCCCCUGUCAGAUUCUGGUGAAUCUGCGAAUUCUGCUGU

This series covers variants of B1. The series is described as follows: self-cleavage, relative activity (ratio to wild type); higher = more cleavage; co-transcriptional.
As for GGGGGCCACAGCAGAAGCAUUCACGUCGCGGCCCCUGUCAGAUUCUGGUGAAUCUGCGAAUUCUACUGU, the self-cleavage came out at 0.0987.
As to GGGGGCCACAGCAGAAGCAUUCACGUCGCGGCCCCUGUCAGAUUCUGGUGAAUCUGCGAAUUCUUCUGU, the self-cleavage worked out at 0.159.
As for GGGGGCCACAGCAGAAGCAUUCACGUCGCGGCCCCUGUCAGAUUCUGGUGAAUCUGCGAAUUCUCCUGU, the figure is 0.127.
For the variant GGGGGCCACAGCAGAAGCAUUCACGUCGCAGCCCCUGUCAGAUUCUGGUGAAUCUGCGAAUUCUGCUGU, the self-cleavage stood at 0.144.
For GGGGGCCACAGCAGAAGCAUUCACGUCGCUGCCCCUGUCAGAUUCUGGUGAAUCUGCGAAUUCUGCUGU the value was 0.147; for GGGGGCCACAGCAGAAGCAUUCACGUCGCCGCCCCUGUCAGAUUCUGGUGAAUCUGCGAAUUCUGCUGU, 0.166.
Consider GGGGGCCACAGCAGAAGCAUUCACGUCGCGGCCCCUGUCAGAUUCUGGUGAAUCUGCGAAUUCCGCUGU, for which the self-cleavage turned out to be 0.159.
For the variant GGGGGCCACAGCAGAAGCAUUCACGUCGCGCCCCCUGUCAGAUUCUGGUGAAUCUGCGAAUUCUGCUGU, the self-cleavage came to 0.143.
For GGGGGCCACAGCAGAAGCAUUCACGUCGCGUCCCCUGUCAGAUUCUGGUGAAUCUGCGAAUUCUGCUGU the value was 0.146.
With GGGGGCCACAGCAGAAGCAUUCACGUCGCGGCCCCUGUCAGAUUCUGGUGAAUCUGCGAAUUCUGCGGU, the self-cleavage was 0.205.
As for GGGGGCCACAGCAGAAGCAUUCACGUCGCGGCCCCUGUCAGAUUCUGGUGAAUCUGCGAAUUCUGCCGU, the self-cleavage was found to be 0.177.
Take GGGGGCCACAGCAGAAGCAUUCACGUCGCGGCCCCUGUCAGAUUCUGGUGAAUCUGCGAAUUCUGUUGU: the self-cleavage was determined as 0.162.
In the case of GGGGGCCACAGCAGAAGCAUUCACGUCGCGGCCCCUGUCAGAUUCUGGUGAAUCUGCGAAUUCUGGUGU, the self-cleavage turned out to be 0.146.
Turning to GGGGGCCACAGCAGAAGCAUUCACGUCGCGGCCCCUGUCAGAUUCUGGUGAAUCUGCGAAUUCUGAUGU, the self-cleavage is 0.145.
Turning to GGGGGCCACAGCAGAAGCAUUCACGUCGCGGCCCCUGUCAGAUUCUGGUGAAUCUGCGAAUUCUGCUGA, the self-cleavage came to 0.184.
For GGGGGCCACAGCAGAAGCAUUCACGUCGCGGACCCUGUCAGAUUCUGGUGAAUCUGCGAAUUCUGCUGU the value was 0.174; for GGGGGCCACAGCAGAAGCAUUCACGUCGCGGCCCCUGUCAGAUUCUCGUGAAUCUGCGAAUUCUGCUGU, 0.25; for GGGGGCCACAGCAGAAGCAUUCACGUCGCGGCCCCUGUCAGAUUCUGGUGAAUCUGCGAAUUAUGCUGU, 0.0882.
Turning to GGGGGCCACAGCAGAAGCAUUCACGUCGCGGCCCCUGUCAGAUUCUGGUGAAUCUGCGAAUUGUGCUGU, the self-cleavage is 0.152.
Take GGGGGCCACAGCAGAAGCAUUCACGUCGCGGCCCCUGACAGAUUCUGGUGAAUCUGCGAAUUCUGCUGU: the self-cleavage was determined as 0.165.
For GGGGGCCACAGCAGAAGCAUUCACGUCGCGGCCCCUGCCAGAUUCUGGUGAAUCUGCGAAUUCUGCUGU the value was 0.16; for GGGGGCCACAGCAGAAGCAUUCACGUCCCGGCCCCUGUCAGAUUCUGGUGAAUCUGCGAAUUCUGCUGU, 0.216; for GGGGGCCACAGCAGAAGCAUUCACGUCACGGCCCCUGUCAGAUUCUGGUGAAUCUGCGAAUUCUGCUGU, 0.152.
For GGGGGCCACAGCAGAAGCAUUCACGUCUCGGCCCCUGUCAGAUUCUGGUGAAUCUGCGAAUUCUGCUGU, the self-cleavage stood at 0.132.
On to GGGGGCCACAGCAGAAGCAUUCACGUCGCGGCCCCUGUCAGAUUCUGGUGAAUUUGCGAAUUCUGCUGU, for which the self-cleavage amounted to 0.134.
Take GGGGGCCACAGCAGAAGCAUUCACGUCGCGGCCCCUGUCAGAUUCUGGUGAAUAUGCGAAUUCUGCUGU: the self-cleavage stood at 0.163.
For the variant GGGGGCCACAGCAGAAGCAUUCACGUCGCGGCCCCUGUCAGAUUCGGGUGAAUCUGCGAAUUCUGCUGU, the self-cleavage was 0.151.
As to GGGGGCCACAGCAGAAGCAUUCACGUCGCGGCCCCUGUCAGAUUCCGGUGAAUCUGCGAAUUCUGCUGU, the self-cleavage was 0.103.
In the case of GGGGGCCACAGCAGAAGCAUUCACGUCGCGGCCCCUGUCAGAUUCUGGUGAAACUGCGAAUUCUGCUGU, the self-cleavage was 0.174.
Regarding GGGGGCCACAGCAGAAGCAUUCACGUCGCGGCCCCUGUCAGAGUCUGGUGAAUCUGCGAAUUCUGCUGU, the self-cleavage came to 0.245.
Take GGGGGCCACAGCAGAAGCAUUCACGUCGCGGCCCCUGUCAGAUUCUGUUGAAUCUGCGAAUUCUGCUGU: the self-cleavage stood at 0.227.
As for GGGGGCCACAGCAGAAGCAUUCACGUCGCGGCCCCUGUCAGAUUCUGAUGAAUCUGCGAAUUCUGCUGU, the figure is 0.144.
Consider GGGGGCCACAGCAGAAGCAUUCACGUCGCGGCCCCUGUCAGAUUCUGGUGAAUCUGCGAAUACUGCUGU, for which the self-cleavage was determined as 0.204.
On to GGGGGCCACAGCAGAAGCAUUCACGUCGCGGCCCCUGUCAGAUUCUGGUGAAUCUGCGAAUGCUGCUGU, for which the self-cleavage is 0.169.
On to GGGGGCCACAGCAGAAGCAUUCACGUCGCGGCCACUGUCAGAUUCUGGUGAAUCUGCGAAUUCUGCUGU, for which the self-cleavage worked out at 0.201.
Turning to GGGGGCCACAGCAGAAGCAUUCACGUCGCGGCCUCUGUCAGAUUCUGGUGAAUCUGCGAAUUCUGCUGU, the self-cleavage worked out at 0.181.
Consider GGGGGCCACAGCAGAAGCAUUCACGUCGCGGCCCCUGUCAGAUUCUGGAGAAUCUGCGAAUUCUGCUGU, for which the self-cleavage worked out at 0.2.
Regarding GGGGGCCACAGCAGAAGCAUUCACGUCGCGGCCCCUGUCAGAUUCUGGGGAAUCUGCGAAUUCUGCUGU, the self-cleavage was 0.181.
Consider GGGGGCCACAGCAGAAGCAUUCACGUCGCGGCCCCUGUCAGAUUCUGGCGAAUCUGCGAAUUCUGCUGU, for which the self-cleavage was found to be 0.163.
For GGGGGCCACAGCAGAAGCAUUCACGUCGCGGCCCGUGUCAGAUUCUGGUGAAUCUGCGAAUUCUGCUGU the value was 0.183.
GGGGGCCACAGCAGAAGCCUUCACGUCGCGGCCCCUGUCAGAUUCUGGUGAAUCUGCGAAUUCUGCUGU: the self-cleavage was 0.154.
Consider GGGGGCCACAGCAGAAGCAUUCACGUCGCGGCCCCUGUCAGAUUCUGGUGAAUCUGGGAAUUCUGCUGU, for which the self-cleavage worked out at 0.137.
As for GGGGGCCACAGCAGAAGCAUUCACGUCGCGGCCCCUGUCAGAUUCUGGUGAAUCUGAGAAUUCUGCUGU, the figure is 0.133; as for GGGGGCCACAGCAGAAGCAUUCACGUCGCGGCCCCUGUCAGAUUCUGGUGAAUCUGUGAAUUCUGCUGU, 0.178; as for GGGGGCCACAGCAGAAGCAUUCACCUCGCGGCCCCUGUCAGAUUCUGGUGAAUCUGCGAAUUCUGCUGU, 0.151.
For GGGGGCCACAGCAGAAGCAUUCACAUCGCGGCCCCUGUCAGAUUCUGGUGAAUCUGCGAAUUCUGCUGU, the self-cleavage was determined as 0.0763.
As for GGGGGCCACAGCAGAAGCAUUCACUUCGCGGCCCCUGUCAGAUUCUGGUGAAUCUGCGAAUUCUGCUGU, the self-cleavage was 0.164.
As for GGGGGCCACAGCAGAAGCAUUCACGUCGCGGCCCCUGUCAGAUUCUGGUGAAUCGGCGAAUUCUGCUGU, the figure is 0.099; as for GGGGGCCACAGCAGAAGCAUUCACGUCGCGGCCCCUGUCAGAUUCUGGUGAAUCAGCGAAUUCUGCUGU, 0.185; as for GGGGGCCACAGCAGAAGCAUUCACGUCGCGGCCCCUGUCAGAUUCUGGUGAAUCCGCGAAUUCUGCUGU, 0.218.
In the case of GGGGGCCACAGCAGAAGCAUUCACGUCGCGGCCCCAGUCAGAUUCUGGUGAAUCUGCGAAUUCUGCUGU, the self-cleavage is 0.0999.
GGGGGCCACAGCAGAAGCAUUCACGUCGCGGCCCCGGUCAGAUUCUGGUGAAUCUGCGAAUUCUGCUGU: the self-cleavage amounted to 0.165.
For GGGGGCCACAGCAGAAGCAUUCACGUCGCGGCCCCUGUCAGAUUGUGGUGAAUCUGCGAAUUCUGCUGU the value was 0.194; for GGGGGCCACAGCAGAAGCCUUCUCGUCGCGGCCCCUGUCAGAUUCUGGUGAAUCUGCGAAUUCUGCUGU, 0.119; for GGGGGCCACAGCAGAAGCCUUCCCGUCGCGGCCCCUGUCAGAUUCUGGUGAAUCUGCGAAUUCUGCUGU, 0.181.
For GGGGGCCACAGCAGAAGCAUUCACGACGCGGCCCCUGUCAGAUUCUGGUGAAUCUGCGAAUUCUGCUGU the value was 0.19; for GGGGGCCACAGCAGAAGCCUUCACGUCGCGGCCCCUGUCGGAUUCUGGUGAAUCUGCGAAUUCUGCUGU, 0.194; for GGGGGCCACAGCAGAAGCCUUCACGUCGCGGCCCCUGUCUGAUUCUGGUGAAUCUGCGAAUUCUGCUGU, 0.0999.
As to GGGGGCCACAGCAGAAGCAUUCACGUCGCGGCCCCUUUCAGAUUCUGGUGAAUCUGCGAAUUCUGCUGU, the self-cleavage worked out at 0.127.
Turning to GGGGGCCACAGCAGAAGCAUUCACGUCGCGGCCCCUGUCAGAUACUGGUGAAUCUGCGAAUUCUGCUGU, the self-cleavage came to 0.172.
On to GGGGGCCACAGCAGAAGCAUUCACGUCGCGGCCCCUGUCAGAUGCUGGUGAAUCUGCGAAUUCUGCUGU, for which the self-cleavage is 0.158.
GGGGGCCACAGCAGAAGCAUUCACGUCGCGGCCCCUGUCAGAUUCUGGUGAAUCUGCUAAUUCUGCUGU: the self-cleavage amounted to 0.194.
In the case of GGGGGCCACAGCAGAAGCAUUCACGUCGCGGCCCCUGUCAGAUUCUGGUGAAUCUGCCAAUUCUGCUGU, the self-cleavage is 0.168.
For GGGGGCCACAGCAGAAGCAUUCACGUCGCGGCUCCUGUCAGAUUCUGGUGAAUCUGCGAAUUCUGCUGU the value was 0.13.
For the variant GGGGGCCACAGCAGAAGCAUUCACGUCGCGGCACCUGUCAGAUUCUGGUGAAUCUGCGAAUUCUGCUGU, the self-cleavage worked out at 0.126.
For GGGGGCCACAGCAGAAGCAUUCACGUCGCGGCCCCUGUAAGAUUCUGGUGAAUCUGCGAAUUCUGCUGU the value was 0.145; for GGGGGCCACAGCAGAAGCAUUCACGUCGCGGCCCCUGUUAGAUUCUGGUGAAUCUGCGAAUUCUGCUGU, 0.158; for GGGGGCCACAGCAGAAGCAUUCACGUCGCGGCCCCUGUCAGAUUCUGGUGAAUCUGCGAAUUCUGCUUU, 0.232.
For GGGGGCCACAGCAGAAGCAUUCACGUCGCGGCCCCUGUCAGAUUCUGGUGAAUCUACGAAUUCUGCUGU the value was 0.104.
As for GGGGGCCACAGCAGAAGCAUUCACGUCGCGGCCCCUGUCAGAUUCUGGUGAAUCUCCGAAUUCUGCUGU, the figure is 0.0715; as for GGGGGCCACAGCAGAAGCAUUCACGUCGCGGCCCCUGUCAGAUUCUGGUCAAUCUGCGAAUUCUGCUGU, 0.204; as for GGGGGCCACAGCAGAAGCAUUCACGUCGCGGCCCCUGUCAGAUUCUGGUAAAUCUGCGAAUUCUGCUGU, 0.197.
Take GGGGGCCACAGCAGAAGCAGUCACGUCGCGGCCCCUGUCAGAUUCUGGUGAAUCUGCGAAUUCUGCUGU: the self-cleavage came to 0.111.
Regarding GGGGGCCACAGCAGAAGCAUUCACGUCGCGGCCCCUGUCACAUUCUGGUGAAUCUGCGAAUUCUGCUGU, the self-cleavage amounted to 0.187.
With GGGGGCCACAGCAGAAGCAUUCACGUCGCGGCCCCUGUCAUAUUCUGGUGAAUCUGCGAAUUCUGCUGU, the self-cleavage was found to be 0.142.
For the variant GGGGGCCACAGCAGAAGCAUUCACGUCGCGGCCCCUGUCAAAUUCUGGUGAAUCUGCGAAUUCUGCUGU, the self-cleavage worked out at 0.153.
In the case of GGGGGCCACAGCAGAAGCAUUCACGUCGCGGCCCCUGUCAGAUUCUGGUGAAUCUGCGAACUCUGCUGU, the self-cleavage was 0.164.
Consider GGGGGCCACAGCAGAAGCAUUCACGUCGCGGCCCCUGUCAGAUUCUGGUGAAUCUGCGAAAUCUGCUGU, for which the self-cleavage came out at 0.16.

The record behind these values is the RNAGym collection of RNA variant scans (doi:10.7554/elife.80360).
